Test results reported in publication PMC8764033, “Single-molecule analysis of specificity and multivalency in binding of short linear substrate motifs to the APC/C” (Nature Communications, 2022).
Where “and” joins values, the source holds several entries; their conditions need not be identical. Equal values may be shown once. Where no end group is shown, it is not given here. Cy5 = cyanine-5 fluorescent label

T1: WD40 domain of Cdh1 from Saccharomyces cerevisiae (aa 241–550), for anisotropy (S. cerevisiae, UniProt P53197 241-550)
T1 construct: Cdh1, S. cerevisiae, WD40 domain, aa 241-550; Cloned into pFastBac HT A; also called Cdh1^WD40; Cdh1 WD40; source: Sf9, baculovirus, purified (StrepTrap)
T1 sequence (looked up): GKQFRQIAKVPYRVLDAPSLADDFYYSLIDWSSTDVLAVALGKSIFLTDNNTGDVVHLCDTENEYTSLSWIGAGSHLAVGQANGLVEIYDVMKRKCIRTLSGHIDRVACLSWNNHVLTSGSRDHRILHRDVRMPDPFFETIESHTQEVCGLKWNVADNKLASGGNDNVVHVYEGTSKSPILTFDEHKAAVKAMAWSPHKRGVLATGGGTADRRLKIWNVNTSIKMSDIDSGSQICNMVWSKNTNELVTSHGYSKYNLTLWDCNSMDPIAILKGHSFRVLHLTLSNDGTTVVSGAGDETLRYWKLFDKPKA

T2: GFP-tagged WD40 domain of yeast Cdh1 (aa 241–550), for SMOR (S. cerevisiae, UniProt P53197 241-550)
T2 construct: Cdh1, S. cerevisiae, WD40 domain, aa 241-550; also called Cdh1^WD40; GFP-tagged Cdh1^WD40; source: Sf9, baculovirus, purified (StrepTrap); not shown: 2xStrep-Tag II, N-terminal, kept; GFP, C-terminal, kept
T2 sequence (looked up): T1 sequence (looked up)

B1: Cy5-labeled Hsl1 D box peptide (peptide)
chain: EQKPKRAALSDITNSFNKMNK-Cy5
B2: Cy5-labeled Hsl1 KEN peptide (peptide)
chain: GVSTNKENEGPEYPTKIEK-Cy5
B3: Cy5-labeled ySecurin D box peptide (peptide)
chain: AQQQGRLPLAAKDNNRSKSFIK-Cy5
B4: Cy5-labeled Clb5 D box peptide (peptide)
chain: QDSKPRRALTDVPVNNNPLSQK-Cy5
B5: Hsl1 fragment (amino acids 667–872) with C-terminal HaloTag, mutations in the D box (domain or fragment)
chain: QNSASKRSLYSLQSISKRSLNLNDLLVFDDPLPSKKPASENVNKSEPHSLESDSDFEILCDQILFGNALDRILEEEEDNEKERDTQRQRQNDTKSSADTFTISGVSTNKENEGPEYPTKIEKNQFNMSYKPSENMSGLSSFPIFEKENTLSSSYLEEQKPKAAAASDITASFNKMNKQEGMRIEKKIQREQLQKKNDRPSPLKPIQ
modifications: JF549 or JF646 dye covalently bound to the HaloTag
B6: Cy5-labeled ySecurin KEN peptide (peptide)
chain: PANEDKENNIVYTGK-Cy5
B7: Cy5-labeled AurKB D box peptide (peptide)
chain: LPKATRKALGTVNRATEKSVKK-Cy5
B8: Cy5-labeled hSecurin KEN box peptide (peptide)
chain: LIYVDKENGEPGTRK-Cy5

Assays:
Details in all cases: both partners purified
[1] = molecular target: T1, WD40 domain of Cdh1 from Saccharomyces …; experiment: fluorescence polarisation; fluorescence anisotropy; 10 nM C-terminally Cy5-labeled peptide mixed with increasing concentrations of purified protein (Cdh1 WD40 up to 30.6 µM); wash buffer B (50 mM Tris-HCl pH 8, 150 mM KCl, 0.5 mM EDTA, 1 mM DTT, 10% glycerol); 25 °C; one-site equilibrium fit
[2] = molecular target: T3, WD40 domain of human Cdc20 (aa 162–484), for anisotropy (human, UniProt Q12834 162-484); experiment: as above
T3 construct: human Cdc20, WD40 domain, aa 162-484; Cloned into pFastBac HT A; also called human Cdc20 WD40; source: Sf9, baculovirus, purified (StrepTrap)

[3] = molecular target: T4, WD40 domain of human Cdh1 (aa 165–484), for anisotropy (human, UniProt Q9UM11 165-484); experiment: as above
T4 construct: human Cdh1, WD40 domain, aa 165-484; Cloned into pFastBac HT A; also called human Cdh1 WD40; source: Sf9, baculovirus, purified (StrepTrap)

[4] = molecular target: T2, GFP-tagged WD40 domain of yeast Cdh1 …; experiment: single-molecule off-rate (SMOR) assay, TIRF microscopy; target held on PEG/PEG-biotin glass by NeutrAvidin and biotinylated anti-Strep-Tag II antibody (tag on the activator); dye-labeled ligand (peptide no greater than 1 nM) in buffer C + BSA (20 mM HEPES pH 7.5, 150 mM KCl, 10% glycerol, 0.05% Tween-20, 1 mM DTT) with oxygen scavengers; mean dwell time from an exponential distribution; dwell times below 100 ms …
[5] = molecular target: T5, Cdh1-activated yeast APC/C (S. cerevisiae | S. cerevisiae …, UniProt P53197 1-566; P53886 1-1748; P09798 1-840; P38042 1-758; P53068 1-250); experiment: fluorescence polarisation + other: single-molecule off-rate (SMOR) assay; inferred constants: kon from the KD of anisotropy and the koff of SMOR; KD for APC/C^Cdh1 from the dwell time with the kon of Cdh1 alone assumed
T5 construct: Apc1 subunit of the APC/C, from yeast strain NHY13; Cdc16 subunit of the APC/C (Cdc16-TAP); Cdc27 subunit of the APC/C; Apc10/Doc1 subunit of the APC/C; only Apc1, Cdc16, Cdc27 and Apc10 are named; the yeast strain lacks endogenous Cdh1; TEV cleavage of the TAP tag may leave part of the tag on Cdc16; also called APC/C^Cdh1; not shown: 2xStrep-Tag II, N-terminal, kept; GFP, C-terminal, kept; …

[6] = molecular target: T2, GFP-tagged WD40 domain of yeast Cdh1 …; experiment: as above
[7] = molecular target: T6, GFP-tagged WD40 domain of human Cdh1 (aa 165–484), for SMOR (human, UniProt Q9UM11 165-484); experiment: as above
T6 construct: human Cdh1, WD40 domain, aa 165-484; also called hCdh1^WD40; human Cdh1^WD40; source: Sf9, baculovirus, purified (StrepTrap); not shown: 2xStrep-Tag II, N-terminal, kept; GFP, C-terminal, kept

[8] = molecular target: T5, Cdh1-activated yeast APC/C; experiment: single-molecule off-rate (SMOR) assay, TIRF microscopy; target held on PEG/PEG-biotin glass by NeutrAvidin and biotinylated anti-Strep-Tag II antibody (tag on the activator); dye-labeled ligand (peptide no greater than 1 nM) in buffer C + BSA (20 mM HEPES pH 7.5, 150 mM KCl, 10% glycerol, 0.05% Tween-20, 1 mM DTT) with oxygen scavengers; mean dwell time from an exponential distribution; dwell times below 100 ms …
[9] = molecular target: T7, Cdc20-activated yeast APC/C (S. cerevisiae | S. cerevisiae …, UniProt P26309 1-610; P53886 1-1748; P09798 1-840; P38042 1-758; P53068 1-250); experiment: as above
T7 construct: Apc1 subunit of the APC/C, from yeast strain NHY13; Cdc16 subunit of the APC/C (Cdc16-TAP); Cdc27 subunit of the APC/C; Apc10/Doc1 subunit of the APC/C; only Apc1, Cdc16, Cdc27 and Apc10 are named; TEV cleavage of the TAP tag may leave part of the tag on Cdc16; also called APC/C^Cdc20; not shown: 2xStrep-Tag II, N-terminal, kept; GFP, C-terminal, kept; copies: + + + + + + + + + + + + +

[10] = molecular target: T2, GFP-tagged WD40 domain of yeast Cdh1 …; experiment: as above; remark: listed apart in the source
[11] = molecular target: T1, WD40 domain of Cdh1 from Saccharomyces …; experiment: fluorescence polarisation; fluorescence anisotropy as a1, 10 nM labeled Hsl1 degron peptide with 100 µM unlabeled peptide of the other Hsl1 degron present
[12] = molecular target: T8, GFP-tagged WD40 domain of human Cdc20 (aa 162–484), for SMOR (human, UniProt Q12834 162-484); experiment: single-molecule off-rate (SMOR) assay, TIRF microscopy; target held on PEG/PEG-biotin glass by NeutrAvidin and biotinylated anti-Strep-Tag II antibody (tag on the activator); dye-labeled ligand (peptide no greater than 1 nM) in buffer C + BSA (20 mM HEPES pH 7.5, 150 mM KCl, 10% glycerol, 0.05% Tween-20, 1 mM DTT) with oxygen scavengers; mean dwell time from an exponential distribution; dwell times below 100 ms …
T8 construct: human Cdc20, WD40 domain, aa 162-484; also called hCdc20^WD40; human Cdc20^WD40; source: Sf9, baculovirus, purified (StrepTrap); not shown: 2xStrep-Tag II, N-terminal, kept; GFP, C-terminal, kept

[13] = molecular target: T6, GFP-tagged WD40 domain of human Cdh1 …; experiment: as above

T6 sequence (Q9UM11 165-484): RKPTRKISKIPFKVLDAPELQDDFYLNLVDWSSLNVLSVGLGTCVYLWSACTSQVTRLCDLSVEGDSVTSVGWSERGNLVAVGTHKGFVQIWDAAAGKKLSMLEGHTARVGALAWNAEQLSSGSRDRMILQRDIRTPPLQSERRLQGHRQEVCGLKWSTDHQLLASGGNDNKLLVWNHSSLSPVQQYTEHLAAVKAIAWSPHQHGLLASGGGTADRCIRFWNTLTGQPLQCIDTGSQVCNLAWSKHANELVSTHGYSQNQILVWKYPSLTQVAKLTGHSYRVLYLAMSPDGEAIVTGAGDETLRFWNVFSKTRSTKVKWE
T8 sequence (Q12834 162-484): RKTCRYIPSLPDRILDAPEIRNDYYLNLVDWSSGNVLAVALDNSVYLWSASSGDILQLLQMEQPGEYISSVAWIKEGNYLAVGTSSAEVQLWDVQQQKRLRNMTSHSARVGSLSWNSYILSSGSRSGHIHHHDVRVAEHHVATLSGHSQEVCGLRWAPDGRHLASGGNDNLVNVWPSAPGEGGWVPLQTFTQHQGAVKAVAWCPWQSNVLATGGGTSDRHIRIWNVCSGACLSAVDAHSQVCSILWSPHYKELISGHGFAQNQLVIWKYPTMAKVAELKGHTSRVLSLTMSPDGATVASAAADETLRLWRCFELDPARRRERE
T4 sequence (Q9UM11 165-484): as the sequence (Q9UM11 165-484) above
T3 sequence (Q12834 162-484): as the sequence (Q12834 162-484) above

Binder | Kd [1] | mean dwell time [8] [s] | mean dwell time [9] [s] | mean dwell time [10] [s] | mean dwell time [13] [s] | further results
B1 | 3.5 µM and 4 µM | 35.3 | 0.412 | 0.36 | 4.52 | Kd [2]: ~2 µM; Kd [3]: ~2 µM; koff [4]: 2.8 s⁻¹; Kd [5]: 0.036 µM; kon [6]: 800000 M⁻¹ s⁻¹; kon [7]: 100000 M⁻¹ s⁻¹; fold improvement of affinity with unlabeled Hsl1 KEN peptide, against no KEN peptide [11]: ~3 fold; mean dwell time [12]: 1.08 s
B2 | 14 µM and 12 µM | 0.185 |  | 0.166 | 1.48 | fold improvement of affinity with saturating unlabeled D box peptide, against no D box peptide [11]: ~4 fold
B3 |  | 0.132 | 1.87 |  |  | 
B4 |  | 0.159 | 0.207 |  |  | mean dwell time [12]: 0.054 s
B5 |  | 0.374 |  | 0.421 |  | 
B6 | 26 µM and 40 µM |  |  |  | 0.869 | 
B7 |  |  |  |  | 0.202 | 
B8 |  |  |  |  | 0.174 | 
